Assay results taken from US20240002531A1 (ONO PHARMACEUTICAL, published 2024).
Blank lines part the entries; values can stand above or below the binder they belong to.

Assays:
HER2 peptide p614-620 = molecular target: T1, HER2 peptide p614-620 (human); test: SPR Biacore, mAb on chip, peptide analyte, equilibrium analysis
T1 peptide: WKFPDEE
Method: (§1) Unreacted NHS esters were blocked with ethanolamine. […] All measurements were performed at 25° C. Measurement data were analyzed using a 1:1 binding model of BIAevaluation software (Cytiva) to determine a binding rate constant (ka), a dissociation rate constant (kd), and a dissociation constant (KD). For those in which ka or kd could not be determined, KD was determined using the equilibrium value analysis method of BIAevaluation software (Cytiva).

HER2 peptide p614-621 = molecular target: T2, HER2 peptide p614-621 (human); test: as above
T2 peptide: WKFPDEEG
Method: as §1

[1] = molecular target: T3, P612A peptide (HER2 603-622 with P612A) (human); test: SPR Biacore, mAb on chip, peptide analyte, 1:1 fit;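 also: binding measured at 25 °C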
T3 peptide: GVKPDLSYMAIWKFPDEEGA
Method: as §1

[2] = molecular target: T4, E620A peptide (HER2 603-622 with E620A) (human); test: SPR Biacore, mAb on chip, peptide analyte, 1:1 fit;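 also: binding measured at 25 °C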
T4 peptide: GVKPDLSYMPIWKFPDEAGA
Method: as §1

[3] = molecular target: T5, K605A peptide (HER2 603-622 with K605A) (human); test: SPR Biacore, mAb on chip, peptide analyte, 1:1 fit;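 also: binding measured at 25 °C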
T5 peptide: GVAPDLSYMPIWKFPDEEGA
Method: as §1

[4] = molecular target: T6, P617A peptide (HER2 603-622 with P617A) (human); test: SPR Biacore, mAb on chip, peptide analyte, 1:1 fit;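 also: binding measured at 25 °C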
T6 peptide: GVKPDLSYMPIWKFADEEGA
Method: as §1

[5] = molecular target: T7, M611A peptide (HER2 603-622 with M611A) (human); test: SPR Biacore, mAb on chip, peptide analyte, 1:1 fit;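 also: binding measured at 25 °C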
T7 peptide: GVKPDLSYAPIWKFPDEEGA
Method: as §1

[6] = molecular target: T8, S609A peptide (HER2 603-622 with S609A) (human); test: SPR Biacore, mAb on chip, peptide analyte, 1:1 fit;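 also: binding measured at 25 °C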
T8 peptide: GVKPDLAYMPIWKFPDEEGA
Method: as §1

[7] = molecular target: T9, E619A peptide (HER2 603-622 with E619A) (human); test: SPR Biacore, mAb on chip, peptide analyte, 1:1 fit
T9 peptide: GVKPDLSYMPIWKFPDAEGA
Method: as §1

[8] = molecular target: T10, G621A peptide (HER2 603-622 with G621A) (human); test: SPR Biacore, mAb on chip, peptide analyte, 1:1 fit
T10 peptide: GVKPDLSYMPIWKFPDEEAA
Method: as §1

[9] = molecular target: T11, V604A peptide (HER2 603-622 with V604A) (human); test: SPR Biacore, mAb on chip, peptide analyte, 1:1 fit
T11 peptide: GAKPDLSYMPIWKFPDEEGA
Method: as §1

[10] = molecular target: T12, D618A peptide (HER2 603-622 with D618A) (human); test: SPR Biacore, mAb on chip, peptide analyte, 1:1 fit
T12 peptide: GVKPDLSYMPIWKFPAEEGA
Method: as §1

[11] = molecular target: T13, A622G peptide (HER2 603-622 with A622G) (human); test: SPR Biacore, mAb on chip, peptide analyte, 1:1 fit
T13 peptide: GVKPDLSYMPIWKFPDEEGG
Method: as §1

[12] = molecular target: T14, L608A peptide (HER2 603-622 with L608A) (human); test: SPR Biacore, mAb on chip, peptide analyte, 1:1 fit
T14 peptide: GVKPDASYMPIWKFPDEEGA
Method: as §1

[13] = molecular target: T15, Y610A peptide (HER2 603-622 with Y610A) (human); test: SPR Biacore, mAb on chip, peptide analyte, 1:1 fit
T15 peptide: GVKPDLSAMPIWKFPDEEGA
Method: as §1

- Kd (HER2 peptide p614-620): 26400 nM
- Kd (HER2 peptide p614-621): 26600 nM
B1: H2Mab-250 antibody (antibody, V domains shown)
VH: EVQLVESGGGLVQPGGSLKLSCAASGFTFSNYGMSWVRQTPDRRLELVATINNNGGGTYYPDSVKGRFTISRDNAKNTLYLQMSSLKSEDTAMYYCTSPGLLWDAWGAGTTVTVSS
VL: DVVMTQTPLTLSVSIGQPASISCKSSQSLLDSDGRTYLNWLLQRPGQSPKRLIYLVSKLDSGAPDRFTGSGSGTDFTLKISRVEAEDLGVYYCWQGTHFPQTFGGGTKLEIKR
notes: Mouse monoclonal from a hybridoma (immunogen HER2ec made in LN229 cells); also called antibody of the present invention

- Kd [1]: 46.8 nM
- koff [1]: 0.0125 s⁻¹
- kon [1]: 267000 M⁻¹ s⁻¹
- Kd [2]: 42 nM
- koff [2]: 0.00762 s⁻¹
- kon [2]: 182000 M⁻¹ s⁻¹
- Kd [3]: 26.5 nM
- koff [3]: 0.00643 s⁻¹
- kon [3]: 243000 M⁻¹ s⁻¹
- Kd [4]: 43.9 nM
- koff [4]: 0.00716 s⁻¹
- kon [4]: 163000 M⁻¹ s⁻¹
- Kd [5]: 34.1 nM
- koff [5]: 0.00774 s⁻¹
- kon [5]: 227000 M⁻¹ s⁻¹
- Kd [6]: 33.2 nM
- koff [6]: 0.00659 s⁻¹
- kon [6]: 199000 M⁻¹ s⁻¹
- Kd [7]: 66.2 nM
- koff [7]: 0.0111 s⁻¹
- kon [7]: 168000 M⁻¹ s⁻¹
- Kd [8]: 20.4 nM
- koff [8]: 0.0059 s⁻¹
- kon [8]: 290000 M⁻¹ s⁻¹
- Kd [9]: 22.7 nM
- koff [9]: 0.00619 s⁻¹
- kon [9]: 273000 M⁻¹ s⁻¹
- Kd [10]: 49.1 nM
- koff [10]: 0.0125 s⁻¹
- kon [10]: 254000 M⁻¹ s⁻¹
- Kd [11]: 15.5 nM
- koff [11]: 0.00567 s⁻¹
- kon [11]: 366000 M⁻¹ s⁻¹
- Kd [12]: 48.7 nM
- koff [12]: 0.00739 s⁻¹
- kon [12]: 152000 M⁻¹ s⁻¹
- Kd [13]: 26.7 nM
- koff [13]: 0.00603 s⁻¹
- kon [13]: 226000 M⁻¹ s⁻¹
B2: H2Mab-214 antibody (antibody, V domains shown)
VH: QVTLKESGPGILQPSQTLSLTCSFSGFSLSTSGMGVSWIRQPSGKGLEWLAHIFWDDDKRYNPSLKSRLTISKDTSRNKVFLKITSVDTADTATYYCARRVVATDWYFDVWGAGTTVTVSS
VL: DIVLTQSPASLAVSLGQRATISCRASESVEYYGTTLMQWYQQKPGQPPKLLIYAASKVESGVPARFSGSGSGTDFSLNIHPVEEDDVAMYFCQQSRKVPLTFGAGTKLELKR
notes: as for B1
